# Measurements reported in patent US20180112008A1 (Memorial Sloan Kettering, published 2018).
# Ends that are not written are not given here. * marks the point of attachment. GlcNAc2 = N-linked chitobiose, CC(=O)N[C@@H]1[C@@H](O)[C@H](O[C@@H]2O[C@H](CO)[C@@H](O)[C@H](O)[C@H]2NC(C)=O)[C@@H](CO)O[C@H]1*
# T1: GlcNAc2-15-mer glycopeptide, unconjugated (human)
# T1 construct: Cys plus G25-V38 of MUC16^c114; Used in ELISA without KLH; also called 15-mer(chitobiose)[C-G25-V38]; 15mer-chitobiose peptide
# T1 peptide: Ac-CGTQLQN(GlcNAc2)FTLDRSSV-NH2
# T2: biotinylated chitobiose-conjugated 18-mer glycopeptide (human, also: biotinylated, site not given here)
# T2 construct: Cys plus T22-V38 of MUC16^c114; The range is derived from T22-V38 and the statement that c114 is 1777-1890; also called (GlcNAc2)2-18-mer, biotinylated; 18-mer(chitobiose)2[C-T22-V38]
# T2 peptide: Ac-CTRN(GlcNAc2)GTQLQN(GlcNAc2)FTLDRSSV-NH2
# T3: MUC16 nonglycosylated peptide 2 (human)
# T3 construct: Peptide used to elicit the 4H11 antibody; also called nonglycosylated MUC16 peptide 2
# T3 peptide: CTLDRSSVLVDGYSPNRNE
# T4: MUC16^c114-N1 (human, chain 1 pos 24 and pos 30: N-glycosylated Asn (cell-made glycans), written N)
# T4 construct: MUC16^c114 with Asn1 (Asn1777) changed to Ala, on SKOV3 cells; also called N1 mut c114; SKOV3 MUC16^c114-N1; not shown: hrGFP of the phrGFP II-C vector, fused at the cytoplasmic carboxy-terminus
# T4 chain: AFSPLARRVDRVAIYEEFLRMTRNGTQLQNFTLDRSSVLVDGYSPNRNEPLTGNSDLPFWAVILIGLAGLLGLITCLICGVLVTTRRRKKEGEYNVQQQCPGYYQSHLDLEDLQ
# T5: MUC16^c114 (human, capable of N-glycosylation at Asn1, Asn24 and Asn30 ; chain 1 pos 1, 24, 30: Asn capable of N-glycosylation on the transfected cells, written N)
# T5 construct: The forward primer adds Met-Val before Asn1; also called MUC16^c114-GFP; SKOV3 MUC16^c114; not shown: hrGFP of the phrGFP II-C vector fused at the cytoplasmic carboxy-terminus, with its short cloning linker
# T5 chain: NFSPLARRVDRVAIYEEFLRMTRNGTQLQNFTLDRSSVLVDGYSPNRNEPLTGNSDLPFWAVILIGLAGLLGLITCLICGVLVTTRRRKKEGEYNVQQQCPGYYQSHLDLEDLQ
# T6: MUC16 18mer + GlcNAc2-FUCOSE1 (also: N-linked GlcNAc2Fuc (fucosylated chitobiose), Asn site not given here)
# T6 construct: also called 18-mer with fucosylated chitobiose (GlcNAc2Fuc)
# T6 peptide: CTRNGTQLQNFTLDRSSV
# T7: MUC16^c114-N3 (human, chain 1 pos 1 and pos 24: N-glycosylated Asn (cell-made glycans), written N)
# T7 construct: MUC16^c114 with Asn30 (Asn1806) changed to Ala, on SKOV3 cells; also called N30 mut c114; SKOV3-N30 mutc114; not shown: hrGFP of the phrGFP II-C vector, fused at the cytoplasmic carboxy-terminus
# T7 chain: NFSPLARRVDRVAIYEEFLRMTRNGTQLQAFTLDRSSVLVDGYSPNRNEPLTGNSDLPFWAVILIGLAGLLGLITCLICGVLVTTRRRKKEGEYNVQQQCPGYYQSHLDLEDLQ
# What was measured:
# [1] = target: T1, GlcNAc2-15-mer glycopeptide, …; assay: ELISA 12/24/13 (sups from time of freezing), dilution 400, column 15S
# [2] = target: T2, biotinylated chitobiose-conjugated …; assay: BLI (Octet QK), biotinylated glycopeptide on streptavidin sensor, antibody 10 ug/mL, 1:1 model
# Method: Binding affinity was determined using ForeBio Octet QK. 5 μg/mL of biotinylated chitobiose-conjugated 18-mer glycopeptide was loaded onto a streptavidin biosensor. After washing off excess antigen, mouse antibodies were tested at 10 μg/mL for association and dissociation steps, respectively. Binding parameters were calculated using 1:1 binding site model, partial fit.
# [3] = target: T3, MUC16 nonglycosylated peptide 2; assay: sandwich ELISA on 'MUC16 Nonglycosylated Peptide2'; Blank 0.029
# MUC16^c114-N1 = target: T4, MUC16^c114-N1; assay: FACS, SKOV3 transfectant, goat anti-mouse IgG-PE
# MUC16^c114 [4] = target: T5, MUC16^c114; assay: FACS, SKOV3 transfectant, goat anti-mouse IgG-PE
# [5] = target: T6, MUC16 18mer + GlcNAc2-FUCOSE1; assay: sandwich ELISA on 'MUC16 18mer + GlcNAc2-FUCOSE1'; Blank 0.044
# MUC16^c114-N3 = target: T7, MUC16^c114-N3; assay: FACS, SKOV3-N30 mutc114
# MUC16^c114 [6] = target: T5, MUC16^c114; assay: FACS, SKOV3-c114
ELISA signal [1],Kd [2],koff [2],ELISA signal [3],Mean % PE (MUC16^c114-N1),Mean % PE (MUC16^c114 [4]),ELISA signal [5],geometric mean phycoerythrin (PE) fluorescence (MUC16^c114-N3),geometric mean phycoerythrin (PE) fluorescence (MUC16^c114 [6]),Binder
0.14,11.1 nM,0.000678 s⁻¹,0.02,83%,73.1%,1.03,1700,2050,"18C6.D12 (antibody, V domains shown, Mouse monoclonal from a hybridoma; also called MUC16 Glycosylation Antibody 18C6) VH: QVTLKESGPGILQPSQTLSLTCSFSGFSLSTVGMGVGWSRQPSGKGLEWLAHIWWDDEDKYYNPALKSRLTISKDTSKNQVFLKIANVDTADTATYYCTRIGTAQATDALDYWGQGTSVTVSS VL: DIVMTQAAPSVPVTPGESVSISCRSSKSLLHSNGNTYLYWFLQRPGQSPQRLIYYMSNLASGVPDRFSGRGSGTDFTLRISRVEAEDVGVYYCMQSLEYPLTFGGGTKLEIK"
0.1,63.7 nM,0.00242 s⁻¹,0.03,81.7%,69.3%,1.01,536,617,"19C11.H6 (antibody, V domains shown, Mouse monoclonal from a hybridoma; Used as 89Zr-DFO-labelled antibody in the internalization assay; also called MUC16 Glycosylation Antibody 19C11) VH: QVNLKESGPGKLQPSQTLSLTCSFSGFSLSTLGMGVGWIRQSSGKGLEWLAHIWWDDDKYYNPALKSRLTISRATSKNQVFLKIVNVGTADTATYYCARIGTAQATDALDYWGQGTSVTVSS VL: DIVMTQAAPSIPVTPGESVSISCRSSKSLLHSNGNTYLYWFLQRPGQSPQRLIYYMSNLASGVPDRFSGRGSGTDFTLKISRVEAGDVGVYYCMQGLEHPLTFGGGTKLEIK"
0.25,13.8 nM,0.00104 s⁻¹,0.02,,,1.1,,492,"7B12.B3 (antibody, V domains shown, Mouse monoclonal from a hybridoma; also called MUC16 Glycosylation Antibody 7B12) VH: QVTLKESGPGILQPSQTLSLTCSFSGFSLSTVGMGVGWSRQPSGKGLEWLAHIWWDDEDKYYNPALKSRLTISKDTSKNQVFLKIANVDTADSATYYCTRIGTAQATDALDYWGQGTSVTVSS VL: DIVMTQAAPSVSVTPGESVSISCRSSKSLRKSNGNTYLYWFLQRPGQSPQRLIYYMSNLASGVPDRFSGRGSGTDFTLRISRVEAEDVGVYYCMQSLEYPLTFGGGTKLKIK"
